Source: US20080166345A1, “MEDICAMENTS COMPRISING GENE RECOMBINANT ANTIBODY AGAINST GANGLIOSIDE GD3” (KYOWA HAKKO KOGYO CO., LTD., priority 2001, published 2008)

Legend:
[1] = tested on: human melanoma culture cell line G-361; assay: Reactivity with human cancer cell (immunofluorescent method); type: binding; conditions: antibody 5 μg/ml; FIG. 23
Description: (§1) Reactivity of purified anti-GD3 CDR-grafted antibodies KM8869, KM8870 and KM8871 with human cancer cells was measured as follows. That is, 1×10^6 cells of each of human melanoma culture cell lines G-361 (ATCC CRL 1424) and SK-MEL-28 (ATCC HTB72) were suspended in PBS, put into microtubes and centrifuged (2,000 rpm for 2 minutes), and the thus washed cells were stirred after adding 50 μl of the anti-GD3 chimeric antibody KM871 or the anti-GD3 CDR-grafted antibody, KM8869, KM8870 or KM8871 (a solution adjusted to 5 μg/ml with 1% BSA-PBS) and then allowed to react at 4° C. for 1 hour. After the reaction, followed by centrifugation three times with PBS for washing, 20 μl of rabbit anti-human IgG (H+L) F(ab′)2 solution (manufactured by Wako Pure chemical Industries, used by diluting 30 folds with 1% BSA-PBS) fluorescence-labeled with fluorescein isothiocyanate (hereinafter referred to as “FITC”) was added thereto, followed by stirring, and then the reaction was carried out at 4° C. for 1 hour. After the reaction, followed by centrifugation three times with PBS for washing, the cells were again suspended in PBS to carry out the analysis using a flow cytometer EPICS Elite (manufactured by COULTER). As a control, the analysis was carried out by the same procedure without adding antibodies.

[2] = tested on: human melanoma culture cell line SK-MEL-28; assay: as above; type: binding; conditions: antibody 5 μg/ml; FIG. 23
Description: as §1

[3] = tested on: human melanoma culture cell line G-361; assay: In vitro cytotoxic activity (CDC activity), 51Cr release; type: cell-based; conditions: antibody 0.05 to 50 μg/ml, human complement; FIG. 24
Description: (§2) Each of human melanoma culture cell lines, G-361 (ATCC CRL 1424) and SK-MEL-28 (ATCC HTB72), was cultured in RPMI1640-FBS(10) medium and adjusted to 5×10^6 cells, and the cells were isotope-labeled by adding 3.7 MBq equivalent of a radioactive substance Na2^51CrO4 and carrying out the reaction at 37° C. for 1 hour. After the reaction, the cells were washed three times by their suspension in RPMI1640-FBS(10) medium and centrifugation, re-suspended in the medium and then incubated in ice at 4° C. for 30 minutes to thereby spontaneously release the radioactive substance. […]
(§3) To each well of a 96 well U bottom plate (manufactured by Falcon), 50 μl of the target cell suspension prepared in “a.” was added (5×10^4 cells/well), and then the anti-GD3 chimeric antibody KM871 or the anti-GD3 CDR-grafted antibody, KM8869, KM8870 or KM8871, was added to give a final concentration of 0.05 to 50 μg/ml and allowed to react at room temperature for 30 minutes. […] After centrifugation, the amount of ^51Cr released in the supernatant was measured by a γ-counter. The amount of the spontaneously dissociated ^51Cr was calculated by carrying out the same procedure using the medium alone instead of the antibody solution and complement solution and measuring the amount of ^51Cr in the supernatant. […] The CDC activity was calculated by the following equation.

[4] = tested on: human melanoma culture cell line SK-MEL-28; assay: as above; type: cell-based; conditions: antibody 0.05 to 50 μg/ml, human complement; FIG. 24
Description: as §2, §3

[5] = tested on: human melanoma culture cell line SK-MEL-28; assay: In vitro cytotoxic activity (ADCC activity), 51Cr release; type: cell-based; conditions: antibody 0.05 to 50 μg/ml, effector:target 50:1; FIG. 25
Description: Each of human melanoma culture cell lines, G-361 (ATCC CRL 1424) and SK-MEL-28 (ATCC HTB72), was cultured in RPMI1640-FBS(10) medium and adjusted to 1×10^6 cells, and the cells were isotope-labeled by adding 1.85 MBq equivalent of a radioactive substance Na2^51CrO4 and carrying out the reaction at 37° C. for 1 hour. After the reaction, the cells were washed three times by their suspension in RPMI1640-FBS(10) medium and centrifugation, re-suspended in the medium and then incubated in ice at 4° C. for 30 minutes to thereby spontaneously release the radioactive substance. After centrifugation, the cells were adjusted to 2×10^5 cells/ml by adding 5 ml of RPMI1640-FBS(10) medium and used as the target cell suspension.
Healthy human vein blood (50 ml) was collected, and 0.5 ml of heparin sodium (manufactured by Takeda Pharmaceutical) was gently added thereto. The resulting mixture was centrifuged (1,500 to 1,800×g for 30 minutes) using Polymorphprep (manufactured by Nycomed Pharma AS) in accordance with the manufacturers instructions to separate a mononuclear cell layer. […]
Into each well of a 96 well U bottom plate (manufactured by Falcon), 50 μl of the target cell suspension prepared in “a.” was dispensed (1×10^4 cells/well). […] After the reaction, the plate was centrifuged and the amount of ^51Cr in the supernatant was measured by a γ-counter. The amount of the spontaneously dissociated ^51Cr was calculated by carrying out the same procedure using the medium alone instead of the effector cell suspension and antibody solution and measuring the amount of ^51Cr in the supernatant. The amount of the total dissociated ^51Cr was calculated by carrying out the same procedure by adding the medium alone instead of the antibody solution, and 5 N sodium hydroxide instead of the effector cell suspension, and measuring the amount of ^51Cr in the supernatant. The ADCC activity was calculated by the following equation.

[6] = human peripheral blood monocyte as effector; cited from earlier work
[7] = human serum as complement source; cited from earlier work

B1: KM871: anti-GD3 human chimeric antibody; VH SEQ ID NO:49, VL SEQ ID NO:50, human IgG1 and κ C regions (antibody, listed as Mus musculus, V domains shown)
VH: EVTLVESGGDFVKPGGSLKVSCAASGFAFSHYAMSWVRQTPAKRLEWVAYISSGGSGTYYSDSVKGRFTISRDNAKNTLYLQMRSLRSEDSAMYFCTRVKLGTYYFDSWGQGTTLTVSS
VL: DIQMTQTASSLPASLGDRVTISCSASQDISNYLNWYQQKPDGTVKLLIFYSSNLHSGVPSRFSGGGSGTDYSLTISNLEPEDIATYFCHQYSKLPWTFGGGTKLEIKR
modifications: human IgG1 and kappa constant regions
[1]
  reactivity with cells: showed the reactivity
[2]
  reactivity with cells: showed the reactivity
[3]
  CDC activity: remarkably strong cytotoxic activity
[4]
  CDC activity: show the CDC activity
[5]
  ADCC activity: strong ADCC activity
[6]
  ADCC activity in comparison with the original mouse-derived antibody: increased
[7]
  CDC activity in comparison with the original mouse-derived antibody: increased
